Assay results from PMC9675734.
One block for each substance: values may come before it.

How the values were obtained:
[1] = target: soluble domain of Arabidopsis thaliana cytochrome c1 (Arabidopsis thaliana) (UniProt Q9FKS5); experiment: SPR; SPRi; Cc1 immobilised by direct amine coupling on a CS SPRi-Biochip (10 and 15 uM drops); WT or Y48pCMF Cc flowed at 2.5 to 10 uM, 50 uL/min; 298 K; 10 mM sodium phosphate buffer pH 6.5; reference spots with rabbit serum albumin subtracted; 1:1 binding model
[2] = target: soluble domain of Arabidopsis thaliana cytochrome c1 (Arabidopsis thaliana) (UniProt Q9FKS5)
Target sequence in this assay (Q9FKS5 64-265): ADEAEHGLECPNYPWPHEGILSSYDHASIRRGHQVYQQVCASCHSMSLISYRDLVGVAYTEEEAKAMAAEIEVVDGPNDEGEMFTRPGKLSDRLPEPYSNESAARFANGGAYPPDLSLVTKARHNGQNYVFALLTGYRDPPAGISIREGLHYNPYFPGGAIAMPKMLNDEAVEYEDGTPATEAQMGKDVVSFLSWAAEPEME

[3] = target: soluble domain of Arabidopsis thaliana cytochrome c1 (Arabidopsis thaliana) (UniProt Q9FKS5); experiment: dynamic force spectroscopy (AFM); Cc1 anchored on Au(111); Cc (E104C) anchored directly to Au-coated AFM tips by thiol-Au; retraction velocities 0.5 to 4 um/s; 50 mM phosphate buffer pH 6.5; Bell-Evans model
Target sequence in this assay (Q9FKS5 64-265): as above

[4] = target: soluble domain of Arabidopsis thaliana cytochrome c1 (Arabidopsis thaliana) (UniProt Q9FKS5); experiment: single-molecule force spectroscopy (AFM); Cc1 anchored on Au(111); Cc (E104C) anchored to the silicon AFM tip through a PEG27 linker; retraction at 1 um/s; 50 mM phosphate buffer pH 6.5; room temperature
Target sequence in this assay (Q9FKS5 64-265): as above

Sequence of Y48pCMF cytochrome c E104C (P99999 1-48, stated change not applied): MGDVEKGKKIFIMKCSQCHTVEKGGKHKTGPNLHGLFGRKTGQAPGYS

Substance: Y48pCMF cytochrome c (from UniProt P99999 1-105) (natural protein)
Kd [1]: 357 nM | koff [1]: 0.00358 s⁻¹ | kon [1]: 10000 M⁻¹ s⁻¹

conductance of current blinks (EC-STM static break junction, bias 0.8 V, 50 mM phosphate buffer pH 6.5), Gaussian fit of the main peak [2]: 7.4e-06 G0
Substance: Y48pCMF cytochrome c E104C (from UniProt P99999 1-105) (natural protein)
rate of force-activated unbinding k^ou (Bell-Evans model) [3]: 48 s⁻¹ | unbinding force Fr, centre of the Gaussian fit [4]: 77 pN | unbinding force Fr, mean [4]: 91 pN
